Results published in patent US20210380703A1.

What was measured:
Human Fc (human) [1] = experiment: ELISA; negative control
human Fc (human) [2] = experiment: ELISA; negative control

Binder	optical density (Human Fc (human) [1]) [OD]	optical density (human Fc (human) [2]) [OD]
367_A05 (antibody, V domains shown) VH: EVQLLESGGGLVQPGGSLRLSCAASGFTFSDYGMNWVRQAPGKGLEWVSSINYNGGYKGYADSVKGRFTISRDNSKNTLYLQMNSLRAEDTAVYYCARSANWHDTALDYWGQGTLVTVSS VL: DIQMTQSPSSLSASVGDRVTITCRASQSILSYLNWYQQKPGKAPKLVIYAVTSRASGVPSRFSGSGSGTDFTLTISSLQPEDFATYYCQQSYDSPLTFGGGTKVEIK	0.269	
367_B03 (antibody, V domains shown) VH: EVQLLESGGGLVQPGGSLRLSCAASGFTFSSYGMNWVRQAPGKGLEWVAGINYNGGYKSYADSVKGRFTISRDNSKNTLYLQMNSLRAEDTAVYYCARSANWHDTALDYWGQGTLVTVSS VL: DIQMTQSPSSLSASVGDRVTITCRASQSILTYLNWYQQKPGKAPKLLIYAATSLASGVPSRFSGSGSGTDFTLTISSLQPEDFATYYCQQSYNLPLTFGGGTKVEIK	0.318	
367_B07 (antibody, V domains shown) VH: EVQLLESGGGLVQPGGSLRLSCAASGFTFSDYSMNWVRQAPGKGLEWVAGINYNSGYTGYADSVKGRFTISRDNSKNTLYLQMNSLRAEDTAVYYCARSANWHDTHLDYWGQGTLVTVSS VL: DIQMTQSPSSLSASVGDRVTITCRASQSIISYVNWYQQKPGKAPKLLIYAATSLASGVPSRFSGSGSGTDFTLTISSLQPEDFATYYCQQSYNLPLTFGGGTKVEIK	0.236	
367_B08 (antibody, V domains shown) VH: EVQLLESGGGLVQPGGSLRLSCAASGFTFSDYGMNWVRQAPGKGLEWVSGINYNGGYKGYADSVKGRFTISRDNSKNTLYLQMNSLRAEDTAVYYCARSANWHDTALDYWGQGTLVTVSS VL: DIQMTQSPSSLSASVGDRVTITCRASQSILTYLNWYQQKPGKAPKLVIYAATSRASGVPSRFSGSGSGTDFTLTISSLQPEDFATYYCQQSYDNPLTFGGGTKVEIK	0.37	
374_E02 (antibody, V domains shown) VH: EVQLLESGGGLVQPGGSLRLSCAASGFTFSSYSMNWVRQAPGKGLEWVSGINYNGGYTSYADSVKGRFTISRDNSKNTLYLQMNSLRAEDTAVYYCARSANWHDTALDYWGQGTLVTVSS VL: DIQMTQSPSSLSASVGDRVTITCRASQSILSYLNWYQQKPGKAPKLLIYAATSLASGVPSRFSGSGSGTDFTLTISSLQPEDFATYYCQQSYDLPLTFGGGTKVEIK		0.527
374_E05 (antibody, V domains shown) VH: EVQLLESGGGLVQPGGSLRLSCAASGFTFSSYSMNWVRQAPGKGLEWVAGINYNGGYTSYADSVKGRFTISRDNSKNTLYLQMNSLRAEDTAVYYCARSANWHDTALDYWGQGTLVTVSS VL: DIQMTQSPSSLSASVGDRVTITCRASQSILSFVNWYQQKPGKAPKLVIYAATSRASGVPSRFSGSGSGTDFTLTISSLQPEDFATYYCQQSYNLPLTFGGGTKVEIK		0.244
374_E08 (antibody, V domains shown) VH: EVQLLESGGGLVQPGGSLRLSCAASGFTFSSYGMNWVRQAPGKGLEWVAGINYNGGYKSYADSVKGRFTISRDNSKNTLYLQMNSLRAEDTAVYYCARSANWHDTALDYWGQGTLVTVSS VL: DIQMTQSPSSLSASVGDRVTITCRASQSILSYLNWYQQKPGKAPKLLIYAATSRHSGVPSRFSGSGSGTDFTLTISSLQPEDFATYYCQQSYDLPLTFGGGTKVEIK		0.251
374_E11 (antibody, V domains shown) VH: EVQLLESGGGLVQPGGSLRLSCAASGFTFSSYGMNWVRQAPGKGLEWVSNINYNGGYTSYADSVKGRFTISRDNSKNTLYLQMNSLRAEDTAVYYCARSANWHDTALDYWGQGTLVTVSS VL: DIQMTQSPSSLSASVGDRVTITCRASQSIVTYLNWYQQKPGKAPKLVIYAATSRASGVPSRFSGSGSGTDFTLTISSLQPEDFATYYCQQSYDSPLTFGGGTKVEIK		0.186
374_F01 (antibody, V domains shown) VH: EVQLLESGGGLVQPGGSLRLSCAASGFTFDSYSMNWVRQAPGKGLEWVSNINYNGGYTGYADSVKGRFTISRDNSKNTLYLQMNSLRAEDTAVYYCARSANWHDTALDYWGQGTLVTVSS VL: DIQMTQSPSSLSASVGDRVTITCRASQSILSYVNWYQQKPGKAPKLVIYAATSRHSGVPSRFSGSGSGTDFTLTISSLQPEDFATYYCQQSYENPLTFGGGTKVEIK		0.165
374_F02 (antibody, V domains shown) VH: EVQLLESGGGLVQPGGSLRLSCAASGFTFDSYSMNWVRQAPGKGLEWVANINYNSGYTSYADSVKGRFTISRDNSKNTLYLQMNSLRAEDTAVYYCARSANWHDTALDYWGQGTLVTVSS VL: DIQMTQSPSSLSASVGDRVTITCRASQSIVSYLNWYQQKPGKAPKLLIYAASSLQSGVPSRFSGSGSGTDFTLTISSLQPEDFATYYCQQSYELPLTFGGGTKVEIK		0.169

More lines, now with the values ahead:

optical density (Human Fc (human) [1]) [OD]	optical density (human Fc (human) [2]) [OD]	Binder
	0.163	374_F04 (antibody, V domains shown) VH: EVQLLESGGGLVQPGGSLRLSCAASGFTFSSYGMNWVRQAPGKGLEWVSGINYNSGYKSYADSVKGRFTISRDNSKNTLYLQMNSLRAEDTAVYYCARSANWHDTALDYWGQGTLVTVSS VL: DIQMTQSPSSLSASVGDRVTITCRASQSILTYVNWYQQKPGKAPKLLIYAATSRASGVPSRFSGSGSGTDFTLTISSLQPEDFATYYCQQSYNSPLTFGGGTKVEIK
	0.524	374_F10 (antibody, V domains shown) VH: EVQLLESGGGLVQPGGSLRLSCAASGFTFSSYSMNWVRQAPGKGLEWVSGINYNGGYTSYADSVKGRFTISRDNSKNTLYLQMNSLRAEDTAVYYCARSANWHDTALDYWGQGTLVTVSS VL: DIQMTQSPSSLSASVGDRVTITCRASQSILSYLNWYQQKPGKAPKLVIYAATSRASGVPSRFSGSGSGTDFTLTISSLQPEDFATYYCQQSYDNPLTFGGGTKVEIK
	0.191	374_F11 (antibody, V domains shown) VH: EVQLLESGGGLVQPGGSLRLSCAASGFTFDSYSMNWVRQAPGKGLEWVSNINYNGGYTGYADSVKGRFTISRDNSKNTLYLQMNSLRAEDTAVYYCARSANWHDTALDYWGQGTLVTVSS VL: DIQMTQSPSSLSASVGDRVTITCRASQSILSYLNWYQQKPGKAPKLLIYAVTSLASGVPSRFSGSGSGTDFTLTISSLQPEDFATYYCQQSYESPLTFGGGTKVEIK
	0.161	374_G04 (antibody, V domains shown) VH: EVQLLESGGGLVQPGGSLRLSCAASGFTFSSYSMNWVRQAPGKGLEWVAGINYNGGYTGYADSVKGRFTISRDNSKNTLYLQMNSLRAEDTAVYYCARSANWHDTALDYWGQGTLVTVSS VL: DIQMTQSPSSLSASVGDRVTITCRASQSILTYLNWYQQKPGKAPKLVIYAATSLASGVPSRFSGSGSGTDFTLTISSLQPEDFATYYCQQSYDNPLTFGGGTKVEIK
	0.25	374_G06 (antibody, V domains shown) VH: EVQLLESGGGLVQPGGSLRLSCAASGFTFSSYGMHWVRQAPGKGLEWVASINYNGGYTSYADSVKGRFTISRDNSKNTLYLQMNSLRAEDTAVYYCARSANWHDTALDYWGQGTLVTVSS VL: DIQMTQSPSSLSASVGDRVTITCRASQSILSYLNWYQQKPGKAPKLLIYAVTSRASGVPSRFSGSGSGTDFTLTISSLQPEDFATYYCQQSYDLPLTFGGGTKVEIK
	0.214	374_G07 (antibody, V domains shown) VH: EVQLLESGGGLVQPGGSLRLSCAASGFTFSSYSMNWVRQAPGKGLEWVSGINYNSGYKSYADSVKGRFTISRDNSKNTLYLQMNSLRAEDTAVYYCARSANWHDTALDYWGQGTLVTVSS VL: DIQMTQSPSSLSASVGDRVTITCRASQSIISYLNWYQQKPGKAPKLLIYAATSRASGVPSRFSGSGSGTDFTLTISSLQPEDFATYYCQQSYDSPLTFGGGTKVEIK
